Biological target: FGF ligands
Assay: cell-based or functional assay

MTT assay of HUVEC cells (cell growth / metabolic activity): < 50%
B1: FGFR1-CCD fusion protein (protein)
chain: RPSPTLPEQAQPWGAPVEVESFLVHPGDLLQLRCRLRDDVQSINWLRDGVQLAESNRTRITGEEVEVQDSVPADSGLYACVTSSPSGSDTTYFSVNVSDALPSSEDDDDDDDSSSEEKETDNTKPNPVAPYWTSPEKMEKKLHAVPAAKTVKFKCPSSGTPNPTLRWLKNGKEFKPDHRIGGYKVRYATGSIIMDSVVPSDKGNYTCIVENEYGSINHTYQLDVVERSPHRPILQAGLPANKTVALGSNVEFMCKVYSDPQPHIQWLKHIEVNGSKIGPDNLPYVQILKTAGVNTTDKEMEVLHLRNVSFEDAGEYTCLAGNSIGLSHHSAWLTVLEALEERPAVMLKEFMGYQGPPGPPGPPGIPGNHGNNGNNGATGHEGAKGEKGDKGDLGPRGERGQHGPKGEKGYPGIPGYCGPPGPPGPPGIPGNHGNNGNNGATGHEGAKGEKGDKGDLGPRGERGQHGPKGEKGYPGIPDYKDDDDKLQISSTVAAAHHHHHHV

Reference: patent US20220324943A1
